Substrate: OC[C@@H](O)[C@H](O)[C@@H](O)CO
Assay: cells, lysate or membranes
Conditions: proton symport, membrane voltage -40 mV, external pH 5.5

B1: BvPMT5a (Beta vulgaris subsp. vulgaris) (protein)
chain: MSEGTNKAMSDPPPTTASKVIADFDPLKKPPKRNKFAFACATLASMTSVLLGYDIGVMSGAIIYLKEDWHISDTQIGVLVGILNIYCLFGSFAAGRTSDWIGRRYTIVLAGAIFFVGALLMGFATNYAFLMVGRFVTGIGVGYALMIAPVYTAEVSPASSRGFLTSFPEVFINAGILLGYISNLAFSSLPTHLSWRFMLGIGAIPSIFLAIGVLAMPESPRWLVMQGRLGDAKKVLNRISDSPEEAQLRLSEIKQTAGIPAECDEDIYKVEKTKIKSGNAVWKELFFNPTPAVRRAVIAGIGIHFFQQASGIDAVVLYSPRIFQSAGITNARKQLLATVAVGVVKTLFILVATFQLDKYGRRPLLLTSVGGMIIAILTLAMSLTVIDHSHHKITWAIALCITMVCAVVASFSIGLGPITWVYSSEVFPLRLRAQGTSMGVAVNRVVSGVISIFFLPLSHKITTGGAFFLFGGIAIIAWFFFLTFLPETRGRTLENMHELFEDFRWRESFPGNKSNNDENSTRKQSNGNDKSQVQLGETTTSTTVTNDNH
Question: How did the Km turn out when B1 was run?
Answer: 2500 µM

Source: doi:10.1101/2021.09.21.461191v4
